Data on 1 substance can be found in paper PMC8727950.

This assay has as its target honey bee (Apis mellifera) vitellogenin, full-length hemolymph Vg (honey bee (Apis mellifera)) (UniProt Q868N5). The experiment in a line: native gel or EMSA; BN-PAGE of purified Vg, two different amounts loaded; precast 3-12% acrylamide gels, 4 °C, 2 h at 150 V; no reducing agent in loading buffer or gel; monomer to dimer. For orientation: Mobility shift assays separate free from complexed probe on a gel.

As a reminder, the stoichiometry N is a count of units in the complex or per binding partner. As for “honey bee (Apis mellifera) vitellogenin, full-length hemolymph Vg (from UniProt Q868N5 17-1770) (natural protein)”, the stoichiometry N amounted to 2.
